Results as given in the supplement of paper PMC9876800.

Test system: peptide library, one residue held at a place counted from the S/T acceptor
Assay: relative phosphorylation of the sub-library (ratio to the mean residue at this position); human; higher = residue favoured
Outline: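 Human or orthologue kinase constructs, purified and recombinant, were incubated under kinase-specific conditions in 384-well plates with biotinylated degenerate peptide sub-libraries. Each sub-library fixed one residue at one position around a central Ser/Thr. Incubations lasted 90 min with peptides at 50 μM and 50 μM ATP spiked with γ-32P-ATP, after which spots on streptavidin membranes were phosphorimaged and quantified by densitometry. Relative sub-library phosphorylation is a ratio to the mean residue at that position.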

Chain of PRPF4B, construct: aa519-end (Q13523 519-1007, looked up): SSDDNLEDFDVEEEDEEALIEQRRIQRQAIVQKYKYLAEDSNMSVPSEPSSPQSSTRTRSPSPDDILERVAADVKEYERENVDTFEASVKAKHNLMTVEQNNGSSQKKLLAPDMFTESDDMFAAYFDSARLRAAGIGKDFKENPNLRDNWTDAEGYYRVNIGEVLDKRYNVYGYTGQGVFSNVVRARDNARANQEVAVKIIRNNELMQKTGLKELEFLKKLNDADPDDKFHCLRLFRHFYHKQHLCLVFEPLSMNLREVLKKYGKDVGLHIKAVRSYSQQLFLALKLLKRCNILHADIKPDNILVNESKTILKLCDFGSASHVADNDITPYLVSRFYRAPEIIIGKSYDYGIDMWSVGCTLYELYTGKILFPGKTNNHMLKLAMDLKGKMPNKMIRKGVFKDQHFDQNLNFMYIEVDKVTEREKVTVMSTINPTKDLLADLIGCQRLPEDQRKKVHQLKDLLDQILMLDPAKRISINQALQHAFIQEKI
Chain of MAP4K5, construct: Full length (Q9Y4K4 whole entry, looked up): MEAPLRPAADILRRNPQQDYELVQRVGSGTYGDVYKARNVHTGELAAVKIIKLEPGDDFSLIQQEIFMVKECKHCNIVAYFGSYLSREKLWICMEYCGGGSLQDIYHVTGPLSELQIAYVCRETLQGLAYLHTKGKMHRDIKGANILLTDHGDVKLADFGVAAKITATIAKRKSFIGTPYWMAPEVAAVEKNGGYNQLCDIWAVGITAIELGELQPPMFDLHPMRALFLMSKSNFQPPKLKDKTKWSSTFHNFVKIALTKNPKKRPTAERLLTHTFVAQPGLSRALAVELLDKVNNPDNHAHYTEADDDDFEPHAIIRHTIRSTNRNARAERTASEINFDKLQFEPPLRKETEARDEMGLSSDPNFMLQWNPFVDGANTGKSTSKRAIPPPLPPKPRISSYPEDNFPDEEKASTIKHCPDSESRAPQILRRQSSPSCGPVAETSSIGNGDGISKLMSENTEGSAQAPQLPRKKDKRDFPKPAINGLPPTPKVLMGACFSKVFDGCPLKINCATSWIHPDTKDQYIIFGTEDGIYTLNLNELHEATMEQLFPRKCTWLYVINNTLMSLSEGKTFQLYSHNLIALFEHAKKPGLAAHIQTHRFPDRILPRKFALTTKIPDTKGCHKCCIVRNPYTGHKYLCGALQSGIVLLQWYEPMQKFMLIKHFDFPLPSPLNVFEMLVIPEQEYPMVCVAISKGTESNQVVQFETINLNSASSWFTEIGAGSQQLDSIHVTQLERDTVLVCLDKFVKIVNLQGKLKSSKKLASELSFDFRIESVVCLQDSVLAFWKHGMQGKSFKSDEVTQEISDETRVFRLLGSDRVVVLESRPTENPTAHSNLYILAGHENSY
Chain of STK10, construct: aa18-317 (O94804 18-317, looked up): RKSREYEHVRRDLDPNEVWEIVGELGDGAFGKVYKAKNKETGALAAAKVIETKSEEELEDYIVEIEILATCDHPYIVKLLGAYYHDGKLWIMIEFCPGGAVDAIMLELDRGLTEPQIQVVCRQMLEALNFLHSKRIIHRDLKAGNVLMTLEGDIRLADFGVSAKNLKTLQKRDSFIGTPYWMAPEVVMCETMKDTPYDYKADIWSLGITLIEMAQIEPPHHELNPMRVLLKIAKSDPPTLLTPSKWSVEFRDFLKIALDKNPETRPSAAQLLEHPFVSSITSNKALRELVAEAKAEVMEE

STK10, construct: aa18-317 (from UniProt O94804)
relative phosphorylation
Settings	at +1	at +2	at +3	at +4	at -1	at -2	at -3	at -4	at -5
A fixed	0.6	0.853	0.817	0.9	0.811	0.667	0.873	0.975	1.15
D fixed	0.168	0.371	0.456	0.637	0.412	0.51	0.598	0.695	0.905
E fixed	0.167	0.225	0.409	0.563	0.304	0.216	0.598	0.776	0.605
F fixed	1.23	0.634	0.846	0.816	0.911	2.13	1.02	0.85	0.846
G fixed	0.564	1.09	1.09	1.21	0.703	0.543	0.936	1.35	1.28
H fixed	1.06	1.48	1.26	1.04	1.41	1.07	1.25	1.16	1.15
I fixed	1.47	0.48	0.568	0.666	0.539	0.384	0.505	0.718	0.672
K fixed	1.04	2.28	1.92	1.7	1.99	1.86	2.07	1.62	1.81
L fixed	2.1	0.629	0.809	0.876	1.18	0.559	0.612	0.767	0.654
M fixed	1.83	0.729	0.72	0.827	1.12	0.918	0.759	0.858	0.768
N fixed	0.757	1.12	0.961	1.17	1.13	0.879	1.07	0.837	1.15
P fixed	0.321	1.05	1.62	1.48	0.584	0.492	0.85	1.14	1.09
Q fixed	0.763	0.952	0.954	1.17	1.03	0.777	1.02	0.956	0.82
R fixed	1.18	3.13	2.06	1.63	1.96	1.72	2.01	1.58	1.73
V fixed	0.956	0.56	0.613	0.724	0.6	0.485	0.475	0.795	0.814
W fixed	1.49	0.732	0.987	0.896	0.93	0.881	1.24	1.05	0.769
Y fixed	1.3	0.688	0.91	0.699	1.38	2.91	1.11	0.877	0.788
pThr fixed	0.44	0.484	0.586	0.537	0.274	0.358	0.612	0.857	0.871
pTyr fixed	0.362	0.314	0.667	0.476	0.382	0.491	0.938	0.816	0.855

MAP4K5, construct: Full length (from UniProt Q9Y4K4)
relative phosphorylation
Settings	at +1	at +2	at +3	at +4	at -1	at -2	at -3	at -4	at -5
A fixed	0.585	0.999	0.641	0.969	0.963	1.36	0.963	1.03	1.3
D fixed	0.17	0.718	0.375	0.726	0.63	0.491	0.59	0.756	0.739
E fixed	0.173	0.581	0.319	0.67	0.455	0.368	0.553	0.812	0.721
F fixed	1.1	0.535	0.704	0.783	0.704	1.07	0.744	0.995	0.974
G fixed	0.585	1.04	0.891	1.21	1.79	1.43	1.37	1.33	1.42
H fixed	0.605	1.13	1.23	1.14	1.3	1.41	1.21	1.09	1.02
I fixed	1.89	0.373	0.468	0.709	0.294	0.645	0.528	0.684	0.66
K fixed	0.599	2.46	1.81	1.8	1.43	0.905	2.01	1.25	1.3
L fixed	3.52	0.673	0.672	0.796	0.816	0.636	0.628	0.76	0.607
M fixed	2.8	0.797	0.688	0.88	1	0.773	0.697	0.853	0.819
N fixed	0.506	1.02	0.973	1.04	1.43	1.18	1.13	0.933	0.943
P fixed	0.32	1.13	1.14	1.12	1.2	1.07	0.999	1.24	1.37
Q fixed	0.558	1.12	0.907	1.1	1.01	0.806	1.1	0.96	0.877
R fixed	0.697	2.53	3.55	1.49	1.65	1.36	1.77	1.25	1.25
V fixed	0.78	0.513	0.609	0.718	0.362	0.77	0.591	0.78	0.906
W fixed	1.28	0.647	1.08	0.951	0.778	1.3	1.13	1.23	1.07
Y fixed	0.832	0.738	0.94	0.9	1.19	1.43	0.989	1.05	1.02
pThr fixed	0.61	0.623	0.7	0.522	0.433	0.776	0.874	0.936	1.02
pTyr fixed	0.326	0.397	0.716	0.56	0.602	0.695	0.91	0.881	1.1

PRPF4B, construct: aa519-end (from UniProt Q13523)
relative phosphorylation
Settings	at +1	at +2	at +3	at +4	at -1	at -2	at -3	at -4	at -5
A fixed	0.571	0.959	0.8	0.921	1.05	1.22	1.02	1.06	0.939
D fixed	0.544	0.683	0.635	0.83	0.907	0.693	0.586	1.81	1.13
E fixed	0.929	0.685	0.59	0.808	1.25	0.553	0.512	1.16	0.966
F fixed	0.507	1.27	0.722	0.958	0.81	1.27	0.409	0.856	0.905
G fixed	0.774	0.741	1.05	1.4	0.744	1.3	8.94	1.77	0.991
H fixed	0.596	1.07	1.01	1.02	0.844	0.907	0.507	1.01	0.832
I fixed	0.68	1.42	0.911	0.934	0.863	1.21	0.404	0.681	0.831
K fixed	0.56	0.713	1.08	1.03	0.894	0.582	0.382	0.747	1.04
L fixed	0.548	0.954	0.91	0.9	1.03	0.866	0.41	0.866	0.83
M fixed	0.689	1.05	0.747	1.04	1.27	0.815	0.43	0.75	0.842
N fixed	0.665	0.968	1.05	0.83	0.826	0.745	0.538	1.08	0.931
P fixed	5.85	0.725	2.53	1.02	0.785	1.47	0.587	1.13	1.18
Q fixed	0.696	0.791	0.923	0.951	1.25	0.608	0.439	0.858	0.998
R fixed	0.686	0.868	1.42	1.15	1.58	0.625	0.502	0.73	1.28
V fixed	1.56	1.44	0.953	0.882	0.922	1	0.384	0.625	0.987
W fixed	0.532	1.52	0.846	1.31	1.01	2.09	0.512	1.04	1
Y fixed	0.612	1.16	0.825	1	0.969	1.04	0.435	0.812	1.31
pThr fixed	0.638	0.803	0.794	0.583	0.68	0.828	0.697	1.72	0.911
pTyr fixed	0.586	0.825	0.74	0.735	1.15	1.2	0.791	0.882	1.36

PKN2, construct: aa501-984 (from UniProt Q16513)
relative phosphorylation
Settings	at +1	at +2	at +3	at +4	at -1	at -2	at -3	at -4	at -5
A fixed	0.532	0.768	0.837	0.925	0.905	1.1	0.867	1.11	0.963
D fixed	0.318	0.322	0.543	0.614	0.962	0.35	0.321	0.59	0.503
E fixed	0.293	0.32	0.545	0.609	0.719	0.357	0.347	0.669	0.522
F fixed	2.82	0.467	0.753	0.535	0.602	0.671	0.464	0.749	0.806
G fixed	0.43	0.554	0.938	1.17	1.32	0.949	0.823	1.19	1.04
H fixed	0.805	1.63	1.22	1.25	1.16	1.43	1.49	1.16	0.946
I fixed	1.34	0.836	0.888	0.877	0.514	0.569	0.514	0.861	1.45
K fixed	1.33	2.49	1.85	1.94	1.66	2.17	2.37	1.82	1.43
L fixed	1.25	0.927	0.946	0.785	0.833	0.571	0.61	0.804	1.34
M fixed	1.84	0.788	0.839	0.804	0.825	0.852	0.643	0.928	0.723
N fixed	0.75	1.02	0.861	0.994	1.37	1.13	0.736	0.938	0.78
P fixed	0.252	0.471	0.557	1.2	1.06	0.538	0.681	0.831	0.99
Q fixed	0.82	0.758	0.998	0.998	1.04	1.11	0.898	1.09	0.89
R fixed	1.44	3.42	2.22	1.7	1.71	2.83	4.31	1.59	1.84
V fixed	0.927	0.8	0.875	0.787	0.74	0.752	0.512	0.985	1.23
W fixed	0.855	0.536	0.979	0.987	0.775	0.801	0.661	0.871	0.723
Y fixed	0.997	0.885	1.15	0.825	0.811	0.82	0.742	0.809	0.824
pThr fixed	1.05	1.15	0.818	0.683	0.799	0.836	0.743	1.11	0.683
pTyr fixed	0.572	0.884	0.864	0.666	0.856	0.711	0.977	0.741	0.863
